Data as given in publication PMC8022333 (The FEBS journal, 2018).

Biological target: the molecule itself
Test: crystal structure

B1: vimentin coil 1B (residues 153–238) (domain or fragment)
chain: not shown
stoichiometry N: 8
